Measured values as given in paper PMC2746449.

Tests used:
[1] = target: T1, Flag-Aub WT (Drosophila melanogaster, UniProt O76922 1-866); assay: UV crosslinking
T1 sequence: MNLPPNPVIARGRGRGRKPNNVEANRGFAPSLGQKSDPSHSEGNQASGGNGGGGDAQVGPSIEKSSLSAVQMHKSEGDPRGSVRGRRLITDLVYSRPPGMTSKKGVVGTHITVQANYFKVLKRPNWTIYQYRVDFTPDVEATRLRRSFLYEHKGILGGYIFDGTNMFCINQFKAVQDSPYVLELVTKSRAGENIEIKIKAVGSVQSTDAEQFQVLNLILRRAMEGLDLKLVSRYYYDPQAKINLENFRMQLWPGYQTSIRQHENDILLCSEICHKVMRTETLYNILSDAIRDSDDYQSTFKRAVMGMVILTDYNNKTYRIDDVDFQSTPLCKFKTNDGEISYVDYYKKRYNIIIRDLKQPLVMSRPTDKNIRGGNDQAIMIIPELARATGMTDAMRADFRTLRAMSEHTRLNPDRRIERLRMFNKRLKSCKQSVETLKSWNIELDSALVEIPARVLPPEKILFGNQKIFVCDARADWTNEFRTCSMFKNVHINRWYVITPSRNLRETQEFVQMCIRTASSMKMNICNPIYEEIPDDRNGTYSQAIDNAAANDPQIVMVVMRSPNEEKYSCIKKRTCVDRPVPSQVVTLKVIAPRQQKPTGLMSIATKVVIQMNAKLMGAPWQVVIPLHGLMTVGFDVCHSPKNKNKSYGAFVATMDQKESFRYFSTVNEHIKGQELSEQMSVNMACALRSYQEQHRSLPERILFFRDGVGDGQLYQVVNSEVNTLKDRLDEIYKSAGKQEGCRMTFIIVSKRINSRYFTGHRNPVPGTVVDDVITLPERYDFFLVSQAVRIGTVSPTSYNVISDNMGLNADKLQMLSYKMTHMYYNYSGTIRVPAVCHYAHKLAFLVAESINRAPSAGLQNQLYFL

[2] = target: T2, Flag-Aub mutant (M) (Drosophila melanogaster, UniProt O76922 1-866, R11K;R13K;R15K;R17K); assay: UV crosslinking
T2 sequence: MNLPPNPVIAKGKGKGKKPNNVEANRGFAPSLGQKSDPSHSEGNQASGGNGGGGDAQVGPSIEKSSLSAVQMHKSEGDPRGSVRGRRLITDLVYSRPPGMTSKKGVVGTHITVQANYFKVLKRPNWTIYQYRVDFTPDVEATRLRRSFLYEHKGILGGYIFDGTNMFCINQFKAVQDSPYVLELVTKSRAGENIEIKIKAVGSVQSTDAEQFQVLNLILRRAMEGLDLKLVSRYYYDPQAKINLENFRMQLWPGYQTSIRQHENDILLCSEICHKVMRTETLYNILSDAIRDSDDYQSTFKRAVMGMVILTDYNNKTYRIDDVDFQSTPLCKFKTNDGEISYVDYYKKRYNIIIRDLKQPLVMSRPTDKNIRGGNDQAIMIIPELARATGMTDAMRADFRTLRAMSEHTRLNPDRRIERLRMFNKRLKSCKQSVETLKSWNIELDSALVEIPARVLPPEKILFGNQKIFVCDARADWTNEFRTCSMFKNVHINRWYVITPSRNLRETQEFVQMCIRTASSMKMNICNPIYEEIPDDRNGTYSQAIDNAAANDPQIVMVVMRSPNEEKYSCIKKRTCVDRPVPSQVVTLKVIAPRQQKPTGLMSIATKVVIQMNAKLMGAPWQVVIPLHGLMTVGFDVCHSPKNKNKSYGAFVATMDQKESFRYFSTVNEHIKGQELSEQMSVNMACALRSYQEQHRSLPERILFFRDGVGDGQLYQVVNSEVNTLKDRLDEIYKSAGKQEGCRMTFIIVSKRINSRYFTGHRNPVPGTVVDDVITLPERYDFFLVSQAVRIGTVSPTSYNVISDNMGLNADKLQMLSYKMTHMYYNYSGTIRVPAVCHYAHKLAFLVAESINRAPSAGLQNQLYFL

UGACAUGAACACAGGUGCUCAGAUAGCUUU (ssRNA, 4-thio-uridine (s4U) at position 1) [synthetic piRNA with s4U at position 1]
binding result [1]: binds
binding result [2]: binds
